Publication PMC3852207

Legend:
Q61L Rac1·[3H]GTP = Q61L Rac1·[3H]GTP (UniProt P63000); test: scintillation proximity assay (competition); competitor titrated into 30 nM [3H]GTP·Rac1 or [3H]GTP·Cdc42 and 30 nM GST-p50 RhoGAP immobilised on fluoromicrospheres via an anti-GST antibody; partial competition model for RLIP76 GAP and didomain, full competition for GAP insert and free p50 RhoGAP
Q61L Cdc42·[3H]GTP = Q61L Cdc42·[3H]GTP (UniProt P60953); test: as above
GST-p50 RhoGAP = test: scintillation proximity assay (direct); GST-p50 RhoGAP on SPA beads; [3H]GTP·Cdc42 or [3H]GTP·Rac1 in solution; values used as fixed Kd in the competition fits
Rac1 (Homo sapiens) = Rac1 (Homo sapiens) (UniProt P63000); settings: cited from earlier work
Cdc42 (Homo sapiens) = Cdc42 (Homo sapiens) (UniProt P60953); settings: cited from earlier work
Cdc42 (Homo sapiens), sequence (P60953 1-188): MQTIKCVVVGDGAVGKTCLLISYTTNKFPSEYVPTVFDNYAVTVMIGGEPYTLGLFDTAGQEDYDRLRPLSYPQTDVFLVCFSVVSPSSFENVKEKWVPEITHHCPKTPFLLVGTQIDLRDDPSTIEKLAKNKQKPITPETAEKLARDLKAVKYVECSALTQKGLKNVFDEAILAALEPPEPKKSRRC

Q61L Cdc42·[3H]GTP, sequence (P60953 whole entry Q61L): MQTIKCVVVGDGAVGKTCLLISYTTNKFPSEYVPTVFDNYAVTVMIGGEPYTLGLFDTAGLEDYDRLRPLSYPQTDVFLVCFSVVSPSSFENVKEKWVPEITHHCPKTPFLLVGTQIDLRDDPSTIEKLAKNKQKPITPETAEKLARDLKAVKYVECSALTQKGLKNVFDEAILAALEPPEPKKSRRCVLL

Kd (Q61L Rac1·[3H]GTP) | Kd (Q61L Cdc42·[3H]GTP) | Kd (GST-p50 RhoGAP) | Substance | Kd (Rac1 (Homo sapiens)) | Kd (Cdc42 (Homo sapiens))
1680 nM | 6190 nM |  | His-RLIP76 GAP domain (residues 184-380) (from UniProt Q15311 184-380) (domain or fragment) |  | 
2340 nM | 5590 nM |  | His-RLIP76 GAP-GBD didomain (residues 184-446) (from UniProt Q15311 184-446) (domain or fragment) |  | 
 |  | 80 nM | Q61L Cdc42·[3H]GTP (from UniProt P60953 1-191) (natural protein) |  | 
 |  |  | p50 RhoGAP (from UniProt Q07960) | 18 nM | 24 nM
150 nM | 247 nM |  | untagged p50 RhoGAP (domain or fragment) |  | 
